Laboratory results: US20100144617

Assays:
OXM2 = target: T1, OXM2 (not fully specified)
T1 chain: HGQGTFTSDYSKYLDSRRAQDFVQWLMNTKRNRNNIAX

[1] = target: T2, Native porcine OXM, P01274
T2 chain: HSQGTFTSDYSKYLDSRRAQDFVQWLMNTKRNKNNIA

B1: recombinant soluble human DP-IV (protein)
chain: SRKTYTLTDYLKNTYRLKLYSLRWISDHEYLYKQENNILVFNAEYGNSSVFLENSTFDEFGHSINDYSISPDGQFILLEYNYVKQWRHSYTASYDIYDLNKRQLITEERIPNNTQWVTWSPVGHKLAYVWNNDIYVKIEPNLPSYRITWTGKEDIIYNGITDWVYEEEVFSAYSALWWSPNGTFLAYAQFNDTEVPLIEYSFYSDESLQYPKTVRVPYPKAGAVNPTVKFFVVNTDSLSSVTNATSIQITAPASMLIGDHYLCDVTWATQERISLQWLRRIQNYSVMDICDYDESSGRWNCLVARQHIEMSTTGWVGRFRPSEPHFTLDGNSFYKIISNEEGYRHICYFQIDKKDCTFITKGTWEVIGIEALTSDYLYYISNEYKGMPGGRNLYKIQLSDYTKVTCLSCELNPERCQYYSVSFSKEAKYYQLRCSGPGLPLYTLHSSVNDKGLRVLEDNSALDKMLQNVQMPSKKLDFIILNETKFWYQMILPPHFDKSKKYPLLLDVYAGPCSQKADTVFRLNWATYLASTENIIVASFDGRGSGYQGDKIMHAINRRLGTFEVEDQIEAARQFSKMGFVDNKRIAIWGWSYGGYVTSMVLGSGSGVFKCGIAVAPVSRWEYYDSVYTERYMGLPTPEDNLDHYRNSTVMSRAENFKQVEYLLIHGTADDNVHFQQSAQISKALVDVGVDFQAMWYTDEDHGIASSTAHQHIYTHMSHFIKQCFSLP
loss of potency at hGLP-1R (cAMP HTRF) after preincubation with DP-IV (OXM2): loss of potency due to preincubation of the peptides with DP-IV
loss of potency at hGLP-1R (cAMP HTRF) after preincubation with DP-IV [1]: loss of potency due to preincubation of the peptides with DP-IV
